# B1: anti-CRP nanobody A10 displayed on phage (VHH)
# VHH: EVQLQASGGGLVQAGGSLRLSCVASRSILSLAVMGWYRQAPGKERELVASITSGGNTNYADVVKGRFIISRDNAKNTVNLQMNTLRPEDTAVYYCSAKSILTGPNHWRQETQVTVSS
# notes: source: E. coli TG1 with M13K07 helper phage, phages in culture supernatant
# B2: anti-CRP nanobody A6 displayed on phage (VHH)
# VHH: EVQLQASGGGLVRPGGSLRLSCAVSGGTLSNYAVGWFRRAPGNQRELVATFTSGGTTLYADSVKGRFTISRDNLKNTVYLQMNSLKPEDTAVYYCAAKPGRASSQATDYDAWGQGTQVTVSS
# notes: as for B1
# B3: anti-CRP nanobody C1 displayed on phage (VHH)
# VHH: DVQLQASGGGLVQPGGSLRLSCRAPRMVFRRNVMGWFRQAPGKQRELVAYITNDGVTKYTDSVKGRFTISRDNAENTMYLQMNNLKTEDTAVYYCNVRRVLGIAGYWGQGTQVTVSS
# notes: as for B1
# B4: anti-CRP nanobody C10 displayed on phage (VHH)
# VHH: EVQLQASGGGLVQAGGSLRLSCAASGRTFSNYGMGWFRQAPGKEREFVAAITSGGSTYYRDSVKGRFTISRDNAKNTVYLQMNSLKPDDTAVYYCAASRGVTAIWGSSYDYWGQRTLVTVSS
# notes: C10 gave no soluble 6xHis-SpyTag construct; source: E. coli TG1 with M13K07 helper phage, phages in culture supernatant
# B5: anti-CRP nanobody E12 displayed on phage (VHH)
# VHH: EVQLQASGGGLVQAGGSLRLSCAASRRPSSFKVMGWYRQAPGKQRELVARITSGGSTDYADSVKGRFTISRDNAKNTVYLQMNSLEPEDTAVYYCNAYRWGRDNWGQGTQVTVSS
# notes: as for B1
# B6: anti-CRP nanobody B9 displayed on phage (VHH)
# VHH: EVQLQASGGGSVQAGGSLRLSCATSGIIFRNNIMTWYRQAPGKNRELVATITTGGSTNYSDSVKGRFTISRDNTKNTVYLQMSNLKPDDTGVYYCNARRNRFLTGSYGQGTQVTVSS
# notes: as for B1
# B7: anti-CRP nanobody A12 displayed on phage (VHH)
# VHH: EVQLQASGGGLVQAGGSLGLSCAASTRAFSTYAMGWFRQVPGKEREFVAAISSGGSTVYADSVKGRFTISRDNAKNTVYLQMNNLRPEDTAVYYCAARQGIVVRSPTRMDYWGQGTQVTVSS
# notes: as for B1
# B8: anti-CRP nanobody E12 fused to 6xHis-SpyTag (VHH)
# VHH: B5 VHH
# notes: pET14-derived vector; In the biosensor it was held by SpyCatcher attached to the gold electrode
# B9: anti-CRP nanobody H7 fused to 6xHis-SpyTag (VHH)
# VHH: EVQLQASGGGLVQAGGSLRLSCAASGRTFSSYATGWYRQAPGKERELVAAISSGGSTYYADSVKGRFTISRDNAKNTVYLQMNSLKAEDTAVYYCAGGRRVGVLIGNEYDYWGQGTLVTVSS
# notes: pET14-derived vector
# B10: anti-CRP nanobody A6 fused to 6xHis-SpyTag (VHH)
# VHH: B2 VHH
# notes: pET14-derived vector
# B11: anti-CRP nanobody A12 fused to 6xHis-SpyTag (VHH)
# VHH: B7 VHH
# notes: pET14-derived vector
# B12: anti-CRP nanobody B9 fused to 6xHis-SpyTag (VHH)
# VHH: B6 VHH
# notes: pET14-derived vector
# B13: C-reactive protein (CRP) from human pleural fluid (natural protein, UniProt P02741 19-224, looked up)
# chain: QTDMSRKAFVFPKESDTSYVSLKAPLTKPLKAFTVCLHFYTELSSTRGYSIFSYATKRQDNEILIFWSKDIGYSFTVGGSEILFEVPEVTVAPVHICTSWESASGIVEFWVDGKPRVRKSLKKGYTVGAEASIILGQEQDSFGGNFEGSQSLVGDIGNVNMWDFVLSPDEINTIYLGGPFSPNVLNWRALKYEVQGEVFTKPQLWP
# notes: C-reactive protein, human, purified from pleural fluid; source: bought: LEE Biosolutions (from human pleural fluid)
# Target: B13
# Experiment: ELISA; phage screening ELISA: CRP 0.25 ug/well coated overnight at 4 C on MaxiSorp, saturated with 3% BSA-PBS; phages in culture supernatant (100 uL, not normalised) 2 h at room temperature; anti-M13 HRP, TMB, absorbance at 450 nm; ratio of the CRP signal to the BSA control, triplicates
# Settings: one partner purified
row,Binder,Screening ELISA (CRP/BSA Signal)
1,B1,12.3
2,B2,11.8
3,B3,12.5
4,B4,14.6
5,B5,13.3
6,B6,14.6
7,B7,15.5

# Target: T1, BSA (Bos taurus, UniProt P02769)
# T1 construct: BSA (serum albumin), used as negative control
# T1 sequence (P02769 25-607): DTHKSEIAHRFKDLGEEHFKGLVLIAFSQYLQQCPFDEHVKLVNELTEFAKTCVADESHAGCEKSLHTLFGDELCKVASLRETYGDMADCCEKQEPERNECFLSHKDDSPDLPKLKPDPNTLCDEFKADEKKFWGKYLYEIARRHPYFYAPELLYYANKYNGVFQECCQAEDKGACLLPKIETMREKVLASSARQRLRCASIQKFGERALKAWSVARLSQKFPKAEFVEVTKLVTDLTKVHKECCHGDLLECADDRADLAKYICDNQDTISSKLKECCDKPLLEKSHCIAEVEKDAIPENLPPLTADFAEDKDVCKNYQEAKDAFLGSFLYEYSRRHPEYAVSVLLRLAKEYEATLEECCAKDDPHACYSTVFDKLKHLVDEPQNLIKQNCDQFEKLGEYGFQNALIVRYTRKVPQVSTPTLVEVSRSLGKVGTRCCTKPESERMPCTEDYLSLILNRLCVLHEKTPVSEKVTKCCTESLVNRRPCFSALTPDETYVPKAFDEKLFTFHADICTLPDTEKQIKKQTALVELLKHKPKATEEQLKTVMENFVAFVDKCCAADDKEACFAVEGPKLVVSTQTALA
# Experiment: electrochemical impedance spectroscopy; gold electrode carrying E12-SpyTag held by SpyCatcher; CRP or BSA in solution; room temperature, 0.1 M KNO3 with 5 mM K3[Fe(CN)6]/K4[Fe(CN)6]; triplicate
# Settings: both partners purified
row,Binder,binding result
1,B8,no binding (tested: 1 μg/mL)

# Target: B13
# Experiment: BLI; Octet K2; CRP (25 nM) in PBS immobilised on aminopropylsilane (APS) tips, blocked with 1% BSA/PBS; nanobodies 10-1200 nM in 0.1% BSA/PBS; 30 C; 1:1 model, global fit
# Settings: both partners purified
row,Binder,Kd [nM]
1,B9,154
2,B10,51
3,B8,13
4,B11,122

# Target: B13
# Experiment: ELISA; CRP (0.5 ug/well) or BSA coated 2 h at 37 C; purified nanobodies 0.5 ug/well (A6, A12, B9, H7) or 0.1 ug/well (E12) in 2% BSA in PBS, 2 h at room temperature; anti-His and anti-mouse HRP, TMB
# Settings: both partners purified
row,Binder,ELISA signal
1,B9,0.904
2,B10,0.231
3,B8,2.6
4,B12,2.28
5,B11,0.974

# Target: T2, E12 fused to mouse Fc (E12-mFc) (llama)
# T2 construct: as the VHH of m7
# Experiment: ELISA; short protocol (coating 2 h at 37 C) with CRP 1 to 10 ug/mL; 25 ug/mL E12-mFc; anti-mouse HRP, TMB; triplicate
# Settings: both partners purified
row,Binder,binding result
1,B13,binds

# Target: B13
# Experiment: ELISA; CRP (0.5 ug/well) or BSA coated overnight at 4 C; purified nanobodies 0.5 ug/well (A6, A12, B9, H7) or 0.1 ug/well (E12) in 2% BSA in PBS, 2 h at room temperature; anti-His and anti-mouse HRP, TMB
# Settings: both partners purified
row,Binder,ELISA signal
1,B9,1.47
2,B10,0.476
3,B8,2.84
4,B12,1.56
5,B11,1.23

# Reference: article PMC8699515, “Native llama Nanobody Library Panning Performed by Phage and Yeast Display Provides Binders Suitable for C-Reactive Protein Detection” (Biosensors, 2021)
